Experimental findings from the supplement of paper PMC12042874 are described below.

± gives the uncertainty stated by the source.

The nature of the series: amyloid nucleation score (Sup35N fusion, yeast selection) (log enrichment); library NNK1; higher = more nucleation; inactive = no reads after selection. In a few lines: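 Sup35N fusions to peptides of 20 random codons were expressed in psi-negative yeast, induced 24 hours with 100 μM copper sulfate, and grown 7 days at 30°C on medium lacking adenine and uracil. Input and output plasmid inserts were sequenced by Illumina. The nucleation score is the DiMSum log enrichment of output over input reads, centred on the mode score of non-aggregating sequences. Sequences with under 100 input reads were excluded.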
Substance ECGLGRSKEQSNGSWMCLHR came in with an amyloid nucleation score of -0.464 ± 0.54.

As for LYLFDPTNQKRFEVWKWK, the amyloid nucleation score is 0.063 ± 0.49.

In the case of HSCVPICNEYSAADRSYFRY, the amyloid nucleation score is 0.343 ± 0.97.

ISSTGKIFGFFPLCSYMN came in with an amyloid nucleation score of 0.041 ± 0.47.

On to SLIFCSYSNDLFHSWNHKFR, for which the amyloid nucleation score is -0.068 ± 0.7.

With ALCDYWDIA, the amyloid nucleation score entry was “inactive”.

In turn, MSMYYISSCIISLSQVGMYV gave an amyloid nucleation score of 1.26 ± 0.38.

The substance QRIVTG registered an amyloid nucleation score of -0.123 ± 0.59.

For SETFEHRLRD, the amyloid nucleation score was -0.437 ± 0.28.

Substance GGTWPYTAVRWVIWRLWGEG gave an amyloid nucleation score of 0.129 ± 0.64.

HLSVFQLDLTREVANCKSWM: the amyloid nucleation score was determined as 3.17 ± 0.11.

With YGYGY, the amyloid nucleation score was -0.217 ± 0.23.

LHAGRDSAASGPRISIWKPM: the amyloid nucleation score amounted to 0.077 ± 0.38.

YFFCVFI: the amyloid nucleation score is 8.469 ± 0.072.

VLLDGAKMSESAEGGISALW: the amyloid nucleation score is -0.161 ± 0.46.

Substance PHYFFS registered an amyloid nucleation score of -0.593 ± 0.39.

Take NLLYTY: the amyloid nucleation score was found to be 1 ± 0.53.

VMFTTRSWSGDNVFLCV: the amyloid nucleation score entry was “inactive”.

Substance RWCMCVENRGMLVWGWNGFV displayed an amyloid nucleation score of -0.245 ± 0.53.

APMYDDLDATMVELEGP registered an amyloid nucleation score of 0.254 ± 1.2.

As to NARFWVRCIDVHFGVKAGDG, the amyloid nucleation score result is “inactive”.

In turn, LIYVLYLY yielded an amyloid nucleation score of 0.501 ± 0.55.

In turn, ELRLSLYLRKRRQYFRFVLK returned an amyloid nucleation score of -0.516 ± 1.7.

With YNDYACRYCFLVGTMD, the amyloid nucleation score was 7.615 ± 0.052.

Substance ANSYARCYNLVWKLV came in with an amyloid nucleation score of -0.291 ± 0.66.

GEVFFLVRSSVVCWISLICA had an amyloid nucleation score of -0.109 ± 0.39.

The substance PHQPRILM yielded an amyloid nucleation score of -0.387 ± 0.36.

The substance ISDCRFILMYSYGHLCAGVR registered an amyloid nucleation score of 0.513 ± 0.45.

YHTSRYRCTMYMGNSHGAMP displayed an amyloid nucleation score of 0.228 ± 0.97.

VKQTGLVARMRWVTGLARDG: the amyloid nucleation score is -0.921 ± 1.3.

Substance RNDTSDVYGSSGRSNRP showed an amyloid nucleation score of 0.007 ± 0.37.

In the case of SVPRSGKALLLSMMQLGYDS, the amyloid nucleation score is 0.09 ± 0.39.

Turning to GKLSCYPCTGCL, the amyloid nucleation score is -0.109 ± 1.4.

Take NRTWGYLSCALRNPSMTT: the amyloid nucleation score is -0.305 ± 0.47.

IGRMIRVCYVVCYEVDMTTS displayed an amyloid nucleation score of 0.725 ± 0.47.

SVCMLPIDGMGEEVRVFPGV had an amyloid nucleation score of -0.641 ± 0.62.

The substance KSSNLVYVHTAHQRGYYCNQ returned an amyloid nucleation score of 0.3 ± 0.41.

YLCFKYVLGCNRWSVAVVNF: the amyloid nucleation score entry is “inactive”.

For RSEYAPRTNYK, the amyloid nucleation score was -0.237 ± 0.48.

On to LVITVYLYVRRDFCFAFGWL, for which the amyloid nucleation score is -1.06 ± 1.2.

In turn, MEISLVINWSIIITKVCVCV had an amyloid nucleation score of 0.497 ± 0.33.

LYVHSFFRFMWSDKVLLSKT showed an amyloid nucleation score of 0.856 ± 0.56.

Take NMSGMVLGLVLTATWSFMSV: the amyloid nucleation score stood at 0.588 ± 0.45.

The substance ICDYPIVMRKYPVS registered an amyloid nucleation score of -1.68 ± 1.4.

In the case of LLGYLAMCS, the amyloid nucleation score worked out at 1.01 ± 0.23.

As for QPSKCGAWGPLFIAGVGLTQ, the amyloid nucleation score worked out at 0.231 ± 0.33.

Turning to GSFRMVSMLSGISWARVARF, the amyloid nucleation score was determined as 3.04 ± 0.18.

The substance SVCVCLTIGCDFSIESVRCN displayed an amyloid nucleation score of 2.64 ± 0.32.

In the case of SSFRVGTIVTNSAWRWSPCW, the amyloid nucleation score was determined as 5.4 ± 0.062.

Turning to LRRFLPMALDDED, the amyloid nucleation score is -0.676 ± 1.4.

TSMLSGSWSRPDPLTDSSGD displayed an amyloid nucleation score of 0.517 ± 0.47.

As to DVLSSNVFRNWVMVRSYSRQ, the amyloid nucleation score stood at 0.795 ± 0.52.

VYSSMIVLKDALIPSSKTDA yielded an amyloid nucleation score of 0.999 ± 0.51.

Turning to TNTSWVFVVCIEHKEMDQAV, the amyloid nucleation score was found to be 5.9 ± 0.086.

The substance RIKYAWFCVFGTWNRIRVRI had an amyloid nucleation score of 1.1 ± 0.68.

Consider EDSGNVIGEYFWKF, for which the amyloid nucleation score is -1.44 ± 1.9.

In turn, RCYFAWPEWLGYGCVVMERG displayed an amyloid nucleation score of -0.435 ± 0.52.

Consider ITMGTGCSAGEWFMVYMMC, for which the amyloid nucleation score turned out to be 2.15 ± 0.2.

With RSYLCDREYCVFGFCLGIYS, the amyloid nucleation score was 3.44 ± 0.15.

In the case of TGLPFYEEIMRTPHM, the amyloid nucleation score was -0.766 ± 0.5.

Take AGCVPMGEGLGTLESNYSKY: the amyloid nucleation score was 0.637 ± 0.52.

The substance PCPSINWLMIINNR showed an amyloid nucleation score of 7.743 ± 0.051.

In turn, CDNLRCRGLGDWCAWQPLTS yielded an amyloid nucleation score of 0.335 ± 0.65.

As for TLLMRSEGYLFYYAPSLSLV, the amyloid nucleation score was -0.494 ± 0.44.

FKSVGLTWALRGRINKTYLE: the amyloid nucleation score stood at 0.195 ± 0.21.

LNDNLGSMFSL came in with an amyloid nucleation score of -0.772 ± 0.64.

As to PTETVMMRRIFGSRGPWYAV, the amyloid nucleation score was 0.286 ± 1.4.

In turn, PAVIILVIKMHGGIKGKDGR registered an amyloid nucleation score of -0.755 ± 0.44.

The substance LHMTFFTPVDLVVQRTDFRL registered an amyloid nucleation score of 0.971 ± 0.52.

The substance IRLNSFTIESKRMYGRDSDV gave an amyloid nucleation score of 3.38 ± 0.12.

Regarding FNVLCPRRQNLSGVELD, the amyloid nucleation score was -0.02 ± 0.45.

YAFDMRMENTQVRYHVPLII yielded an amyloid nucleation score of 0.292 ± 0.73.

With LIGRIGDFLA, the amyloid nucleation score was found to be 0.097 ± 0.72.

On to SNQRKYGAPVKSLWEIFKSE, for which the amyloid nucleation score amounted to 1.34 ± 0.93.

Substance LLWTKFGYCYRIEWSAVWFF came in with an amyloid nucleation score of -0.527 ± 0.52.

In turn, YELRFMRVEQGSQYREVS gave an amyloid nucleation score of -0.159 ± 0.37.

Take VSRMP: the amyloid nucleation score worked out at 3.21 ± 0.12.

As to TSINWFRTVLYGVSLNYFWV, the amyloid nucleation score was 0.345 ± 0.6.

GLAGTLDPLTASDLLSRIGV: the amyloid nucleation score was determined as 0.182 ± 0.62.

Turning to RSLFMAQVGHMWGRNVIRGI, the amyloid nucleation score was -0.29 ± 1.7.

In turn, YGRKISYLKFLKCVDVVLGW came in with an amyloid nucleation score of 0.303 ± 0.28.

For NWSFEWWTSIAMEQ, the amyloid nucleation score is -0.222 ± 0.42.

Take FGNGHSRMHHRTLHTKPRAA: the amyloid nucleation score came out at 0.37 ± 1.1.

The substance CCYNFYDSGANCHLFFVSFR returned an amyloid nucleation score of -0.817 ± 1.7.

LASSIFASFRTFVQPSVSGY yielded an amyloid nucleation score of -0.146 ± 0.48.

On to SHDFVVIISNCR, for which the amyloid nucleation score came to 5.57 ± 0.093.

LHIFLTLHNQHVWARNGGKL: the amyloid nucleation score amounted to 0.603 ± 0.35.

The substance TSKSTLYSECVMWPVDPEPT had an amyloid nucleation score of 0.273 ± 0.58.

Substance GLVACQAMSNV displayed an amyloid nucleation score of -0.138 ± 0.44.

LGFAW had an amyloid nucleation score of 0.003 ± 0.45.

Regarding CSRRFYESPCKEPAA, the amyloid nucleation score is 0.145 ± 0.43.

Substance HPFKLGVFNISGESLSTA came in with an amyloid nucleation score of -0.802 ± 2.1.

Consider ASPVLFKWICPIYTS, for which the amyloid nucleation score was 2.87 ± 0.15.

SKVCE had an amyloid nucleation score of 0.085 ± 0.66.

As for YKFKGSFVSIRQGAEVGYSA, the amyloid nucleation score was -0.361 ± 0.69.

For the substance TCNRHSDTEGLC, the amyloid nucleation score was -1.13 ± 0.66.

VWGYVMRS: the amyloid nucleation score is 0.299 ± 0.95.

In turn, FYFTHRFRITVRYSVLVMRT registered an amyloid nucleation score of 1.69 ± 0.51.

Take RFMTHLVRRLYAFGMSF: the amyloid nucleation score entry is “inactive”.

For the substance WASMIHVEFYSNYFL, the amyloid nucleation score is -0.017 ± 0.72.

The substance IFFCWTMFRS yielded an amyloid nucleation score of 1.28 ± 0.21.

For NRFTHHSIR, the amyloid nucleation score turned out to be 1.19 ± 0.84.

In the case of NSFSDSHRWKPGRRNRCKRG, the amyloid nucleation score came to 1.07 ± 0.97.
